{"source": "paper PMC9695703", "about": "“Selection of an Aptamer against the Enzyme 1-deoxy-D-xylulose-5-phosphate Reductoisomerase from Plasmodium falciparum”", "key": {"EcDXR-6His": {"molecular_target": "T1, EcDXR-6His (Escherichia coli, UniProt P45568 1-398)", "T1 sequence": "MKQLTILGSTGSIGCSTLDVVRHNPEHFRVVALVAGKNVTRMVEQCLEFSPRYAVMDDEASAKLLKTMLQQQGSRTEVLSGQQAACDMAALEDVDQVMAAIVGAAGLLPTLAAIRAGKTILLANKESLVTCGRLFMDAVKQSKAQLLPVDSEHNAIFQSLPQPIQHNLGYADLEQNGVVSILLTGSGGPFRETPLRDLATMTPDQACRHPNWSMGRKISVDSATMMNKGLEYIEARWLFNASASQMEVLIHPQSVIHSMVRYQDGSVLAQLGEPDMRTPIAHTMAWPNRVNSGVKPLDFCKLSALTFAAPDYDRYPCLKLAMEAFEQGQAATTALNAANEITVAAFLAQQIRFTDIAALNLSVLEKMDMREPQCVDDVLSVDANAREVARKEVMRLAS", "assay": "bead-based flow cytometry saturation binding; protein on latex beads; Bmax 1.67; Kd: PBS pH 7.4, 60 min, dark, 0.3-5.4 uM aptamer; EMSA: 10 mM NaCl, 0.02% Tween-20, 50 mM HEPES pH 8.0, RT 60 min, 2% agarose 0.5x TB", "conditions": "protein: recombinant; tags: C-term 6xHis; label: 5' 6FAM; folded 90/5/37 C before use"}, "[1]": {"molecular_target": "T2, 6His-GST-PfDXRt-6His (1-deoxy-D-xylulose-5-phosphate reductoisomerase) (Plasmodium falciparum, UniProt Q8IKG4 73-488)", "T2 sequence": "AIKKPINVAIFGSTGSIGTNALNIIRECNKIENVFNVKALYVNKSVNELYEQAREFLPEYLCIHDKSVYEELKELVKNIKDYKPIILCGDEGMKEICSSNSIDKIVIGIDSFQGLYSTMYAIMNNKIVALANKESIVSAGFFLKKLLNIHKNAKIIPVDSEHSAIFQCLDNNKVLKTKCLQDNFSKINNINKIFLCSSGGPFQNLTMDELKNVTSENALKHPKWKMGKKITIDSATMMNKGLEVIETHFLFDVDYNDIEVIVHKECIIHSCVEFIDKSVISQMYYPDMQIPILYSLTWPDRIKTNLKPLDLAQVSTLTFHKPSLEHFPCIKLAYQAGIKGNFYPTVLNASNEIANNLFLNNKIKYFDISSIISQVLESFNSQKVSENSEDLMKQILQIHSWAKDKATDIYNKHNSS", "assay": "bead-based flow cytometry saturation binding; protein on latex beads; Bmax 0.79", "conditions": "protein: recombinant; tags: N-term 6xHis-GST, C-term 6xHis; label: 5' 6FAM; folded 90/5/37 C before use"}}}
{"binder": "6FAM-D10 (ssDNA) DNA: ATACCAGCTTATTCAATTCACTGCCACACCACGCCCTGCCATCCGCACATCCATCGTGAGATAGTAAGTGCAATCT", "values": [{"measurement": "Kd", "setting": "EcDXR-6His", "value": "290 ± 90", "unit": "nM"}, {"measurement": "Kd", "setting": "[1]", "value": "260 ± 70", "unit": "nM"}]}
